{"source": "patent US20230285635", "key": {"CD31 (PECAM-1) [1]": {"biological_target": "CD31 (PECAM-1) (UniProt P16284)", "test": "flow", "details": "positions printed as 6 (n in SEQ ID NO: 1) are modified bases, identity not stated in the supplied text; at 600 and 800 nM aptamer, saturated at 600 nM; CD31-negative HepG2 and MSCs only about 2% bound"}, "CD31 (PECAM-1) [2]": {"biological_target": "CD31 (PECAM-1) (UniProt P16284)", "test": "cell_activity", "details": "positions printed as 6 (n in SEQ ID NO: 1) are modified bases, identity not stated in the supplied text; aptamer-coated microfluidic device on ECM, shear stress 20 dynes/cm2; antibody coating 51%; more than 80% attached at 10 dynes/cm2"}}}
{"sequence": "TCAGCCGCCAGCCAGTTCGTAGAGGAGGTACGTAATGTCTGGGTATACCCCGATAATTGACCAGAGCACCACAGAG [anti-CD31 aptamer]", "values": [{"measurement": "binding signal (% of HUVECs bound)", "setting": "CD31 (PECAM-1) [1]", "result": 99}, {"measurement": "activity (% HUVECs attached)", "setting": "CD31 (PECAM-1) [2]", "result": 61.5}]}
